Assay results: patent US20240301046A1

Legend:
[1] = target: biotin-labelled Aβ1-40 monomer (AnaSpec, AS-61483-01) (UniProt P05067); assay: capture ELISA, antibody coated at 100 ng per well, biotin-Aβ40 monomer
Aβ1-42 protofibril = Aβ1-42 protofibril (UniProt P05067); assay: direct ELISA, coated Aβ1-42 protofibril, 50 pmol per well
[2] = target: Aβ1-40 monomer (rPeptide, A-1157-2) (UniProt P05067); assay: direct ELISA, coated Aβ1-40 monomer, 50 pmol per well
[3] = target: Aβ1-42 fibril (rPeptide, AF-1002) (UniProt P05067); assay: direct ELISA, coated Aβ1-42 fibril, 50 pmol per well

EC50 [1]: 0.067 nM
EC50 (Aβ1-42 protofibril): 0.05 nM
EC50 [2]: 50000 nM
EC50 [3]: 0.08 nM
Substance: non-conformation selective anti-Aβ antibody 6E10 (BioLegend, 803001)
